Earlier results on one substance are cited in publication PMC10024700.

In data set [1] the target is Cadherin-23 EC1-2 (Mus musculus) (UniProt Q99PF4). Put plainly: AUC.
For data set [2], the target named is Protocadherin-15 EC1-2 (Mus musculus) (UniProt Q99PJ1). Put plainly: ITC.
Data set [3] shares this target. Put plainly: SPR. (In general: SPR reads the build-up and loss of mass on a sensor chip optically.)

As for Cadherin-23 EC1-2 (from UniProt Q99PF4), the dissociation constant (Kd) is 18000 nM in data set [1], 2900 nM in data set [2] and 840 nM in data set [3].

A word on the Kd: it is the constant that tells how readily two partners part at equilibrium.
